5 molecules from PMC4066111 (Nature, 2014) can be followed below.

To fix the notation:
B1: NO66 (Nucleolar protein 66), aa 183-641, wild type (enzyme)
chain: SPLRRVLAELNRIPSSRRRAARLFEWLIAPMPPDHFYRRLWEREAVLVRRQDHTYYQGLFSTADLDSMLRNEEVQFGQHLDAARYINGRRETLNPPGRALPAAAWSLYQAGCSLRLLCPQAFSTTVWQFLAVLQEQFGSMAGSNVYLTPPNSQGFAPHYDDIEAFVLQLEGRKLWRVYRPRVPTEELALTSSPNFSQDDLGEPVLQTVLEPGDLLYFPRGFIHQAECQDGVHSLHLTLSTYQRNTWGDFLEAILPLAVQAAMEENVEFRRGLPRDFMDYMGAQHSDSKDPRRTAFMEKVRVLVARLGHFAPVDAVADQRAKDFIHDSLPPVLTDRERALSVYGLPIRWEAGEPVNVGAQLTTETEVHMLQDGIARLVGEGGHLFLYYTVENSRVYHLEEPKCLEIYPQQADAMELLLGSYPEFVRVGDLPCDSVEDQLSLATTLYDKGLLLTKMPLALN
B2: rpL27a (32-50) G37C peptide (peptide)
peptide: RGNAGCLHHHRINFDKYHP
B3: Mina53 (MYC-induced nuclear antigen), aa 26-465, wild type (enzyme)
chain: AAGGPSALNFDSPSSLFESLISPIKTETFFKEFWEQKPLLIQRDDPALATYYGSLFKLTDLKSLCSRGMYYGRDVNVCRCVNGKKKVLNKDGKAHFLQLRKDFDQKRATIQFHQPQRFKDELWRIQEKLECYFGSLVGSNVYITPAGSQGLPPHYDDVEVFILQLEGEKHWRLYHPTVPLAREYSVEAEERIGRPVHEFMLKPGDLLYFPRGTIHQADTPAGLAHSTHVTISTYQNNSWGDFLLDTISGLVFDTAKEDVELRTGIPRQLLLQVESTTVATRRLSGFLRTLADRLEGTKELLSSDMKKDFIMHRLPPYSAGDGAELSTPGGKLPRLDSVVRLQFKDHIVLTVLPDQDQSDEAQEKMVYIYHSLKNSRETHMMGNEEETEFHGLRFPLSHLDALKQIWNSPAISVKDLKLTTDEEKESLVLSLWTECLIQVV
B4: rpL8 (205-224) G220C peptide (peptide)
peptide: NPVEHPFGGGNHQHICKPST
B5: ycfD from Escherichia coli, full length, wild type (enzyme)
chain: MEYQLTLNWPDFLERHWQKRPVVLKRGFNNFIDPISPDELAGLAMESEVDSRLVSHQDGKWQVSHGPFESYDHLGETNWSLLVQAVNHWHEPTAALMRPFRELPDWRIDDLMISFSVPGGGVGPHLDQYDVFIIQGTGRRRWRVGEKLQMKQHCPHPDLLQVDPFEAIIDEELEPGDILYIPPGFPHEGYALENAMNYSVGFRAPNTRELISGFADYVLQRELGGNYYSDPDVPPRAHPADVLPQEMDKLREMMLELINQPEHFKQWFGEFISQSRHELDIAPPEPPYQPDEIYDALKQGEVLVRLGGLRVLRIGDDVYANGEKIDSPHRPALDALASNIALTAENFGDALEDPSFLAMLAALVNSGYWFFEG

Data set [1] deals with the molecule itself. In words: crystal structure.
Data set [2] has as its target Y209C Mina53 (aa 26-465) (human, UniProt Q8IUF8 26-465, Y209C). In words: cross-linking.
Data set [3] concerns the target B1. As to the kind of experiment: cross-linking.
The target of data set [4] is L299C/C300S NO66 (aa 183-641) (human, UniProt Q9H6W3 183-641, L299C | C300S). In words: cross-linking.

As for B1, in data set [1], the binding result is given as “binds”.

For the molecule B2, in data set [2], the binding result was “binds”. As for B3, the binding result in data set [1] is given as “binds”. As for B4, the binding result in data set [3] and in data set [4] was “binds” throughout. Take B5: the binding result in data set [1] is given as “binds”.
